Experimental findings from the nanobody polyreactivity screen of Harvey et al. (2022) are described below.

The data set is described as follows: yeast display, Sf9 membrane polyspecificity reagent, FACS + sequencing; frameworks hold sequencing errors. The gist of the method: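 Polyreactivity labels are assigned by the sorting gate from which each nanobody was recovered. The gates were low and high (top ~1%), set on anti-HA fluorescence for expression and streptavidin fluorescence for reagent binding. Before sorting, galactose-induced (36–48 hours) yeast display cells were stained for 1 hour at 4 °C with 10% biotinylated, detergent-solubilized Sf9 membrane reagent.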
For “QVQLVESGGGLVQAGGSLRLSCAASGSIFVQYAMGWYRQAPGNERELVAAISNRGGSTYYADSVKGRFTISRDNAKNTVYLQMNSLKPEDTAVYYCAARKYWGYGTRYYYWGQGTQVTVSS”, the “polyreactivity (PSR sort gate)” value is “high polyreactivity”.

With “QVQLVESGGGLVQAGGSLRLICAASGSIFLTNAMGWYRQAPGKEREFVAAIDWGCTITYYADSVKGRFTISRDNAKNTVYLQMNSLKPEDTAVYYCGADPTYPYGYWGQGTQVSVSS”, the “polyreactivity (PSR sort gate)” value was “low polyreactivity”.

“QVQLVESGGGLVQAGGSLRLSCSASGRIFPFNDMGWYRQAPGKEREFVADISDNGGSTYADSVKGRFTISRDNAKNTVYLQMNSLKPEDTAVYYCAADLLDISSYDGMDYWGQGTQVTVSS”: the “polyreactivity (PSR sort gate)” value was “low polyreactivity”.

On to “QVQLVESGGGLVQAGGSLRLSCAASGSTFYLNAMGWYRPAPGKERELVAAISSGGRTYYADSVKGRFTISRDNAKNTVYLQMISLKPEDTGVYYCNAVRYLRGAYNYWGQGTQVTVSS”, for which the “polyreactivity (PSR sort gate)” value was “high polyreactivity”.

Consider “QVQLVESGGGLVQAGGSLRLSCAASGSTFAYYAMGWYRQAPGKERELVARITASGGRTYYADSVKGRFTISRDNAKNTVYLQMNSLKPEDTAVYYCAKGRYVEVSYGAHYDYWGQGTQVTVSS”, for which the “polyreactivity (PSR sort gate)” value is listed as “low polyreactivity”.

For “QVQLVESGGGLVQAGGSLRLSCAASGSIFRSNAMGWYRQAPGQERELVAAISRSGGRTYYADSVKGRFTISRDNAKNTVYLQMNSLKPEDTAVYYCAAQVVRSLKYEYWGQGTQLTVSS”, the “polyreactivity (PSR sort gate)” value is “high polyreactivity”.

With “QVQLVDSGGGLVQAGGSLRLSCAASGRTIRYNAMGWYRQAPGKERELVAVINSNGGSTYYADSVKGRFTISRDNSKNTVYLQMNSLKPEDTAVYYCAADYIRIQEYDYWGQGTQVTVSS”, the “polyreactivity (PSR sort gate)” value was “low polyreactivity”.

As to “QVQIVESGGGLVQAGGSLRLSCAASGSILYYYAMGWYRQAPGKERELVATITSGGTTNYADSVKGRFTISRDNAKNTFYLQMNRLKPEDTAVYYCATEEVYGQGNYWGQGTQVTVSS”, the “polyreactivity (PSR sort gate)” value was “low polyreactivity”.

In the case of “QVQLVESGGGLDQAGGSLRLSCAASGSNFSGWYTMGWYRQAPGKERELVASISISTTDTYYADSVKGRFTISRDNAKKTVYVQMNSLKPEDTAVYYCAAYGWDHVIVEYDYWGQGTQVTVSS”, the “polyreactivity (PSR sort gate)” value was “low polyreactivity”.

As for “QVQLGESGGGLVQAGGSLRLSCAASGFIFRYYGMGWYRQAPGKERELVAAISRGGGSTYYADSVKGRFTISRDNAKNTVYLQMNSLKPEDTAVYYCATRRDPDYDYWGQGTQVTVSS”, the “polyreactivity (PSR sort gate)” value was “high polyreactivity”.

As to “QVQLVESGGGLVQAGGSLRLSCAASGRIFRRYAMGWYRQAPGKERELVASISLSGGSTYYADSVKGRFTISRDNAKNTVYLQMNSLKPEDTAVYYCAAVIRAYATRATYNSWGQGTQVTVSS”, the “polyreactivity (PSR sort gate)” value is given as “high polyreactivity”.

Take “QVQLVESGGGLVQAGGSLRLSCAASGITLFGYAMGWYRQAPGKERELVAVITSDGGRTYYADSVKGRFTISRDNAKNTVYLQMNSLKPEDTAVYYCAARAYDRTSGYYYWGQGTQVTVSS”: the “polyreactivity (PSR sort gate)” value is “low polyreactivity”.

For the sequence “QVQLVESGGGLVQAGGSLRLSCAASGRIFDSYTMGWYRQEPGKERELVAAISGGGITNYADSVKGRFTISRDNAKNTVYLQMNSLKPEDTAVYYCAARDRYYFGGMYYWGQGTQVTVSS”, the “polyreactivity (PSR sort gate)” value was “low polyreactivity”.

As for “QVQHVESGGGLVQAGGSLRLSCAASGSTFYENAMGWYRQAPGKERELGAGIRSTGRTYYADSVKGRFTISRDNAKNTVYIQMNSLKPEDTAVYYCAAYVGTYGEYDYWGQGTQVTVSS”, the “polyreactivity (PSR sort gate)” value was “low polyreactivity”.

On to “QVQLVESGGGLVQAGGSLRLCCAASGLTFHRYAMGSYRQAPGKERELDAAINYSGGRTYYADSVKGRFTISRDNAKNTVYLQMNSLKPEDTAVYYCAAPRASGYYWGQGTQVTVSS”, for which the “polyreactivity (PSR sort gate)” value is “high polyreactivity”.

With “QVQLVESGGGLDQAGGSLRLTCAASGSTFQFYAMGWYRQAPGKERYLVAAISGAGGSTYYADSVKGRFTISRDNAKNTVYLQMNILKPEDTAVYYCNKVRRKQSVLTFDYWGQGTQVTVSS”, the “polyreactivity (PSR sort gate)” value is reported as “high polyreactivity”.

In the case of “QVQLVESGGGLVQAGGSLRISCAASGSILVFYAMGWYRQAPGKESELVATITGSVGRTSYADSVKGRFTISRDNAKNTVYLQMNSLIPEDTAVYYCAADADTDVFYILQEYDYWGQGTQVTVSS”, the “polyreactivity (PSR sort gate)” value is listed as “low polyreactivity”.

For “QVQLVESGGGLVQAGGSLRLSCAASGRIFATNAMGWYRQAPGKERELVATITRSAGRTYYADSVKGRFTISRDNAKNTVYLQMNSLKPEDTAVYYCAASYWDTDPGYREYDYWGQGTQVTVSS”, the “polyreactivity (PSR sort gate)” value is reported as “low polyreactivity”.

Take “QVQLVESGGGLVQAGGSLRLSCAASGSTFQAYAMGWYRQAPGKERELVAAISVSDGITYYADSVKGRFTISRDNAKNTVYLQMNSLKPEDTAVNYCAAEISLSRSDRIESYDYWGQGTQVTVSS”: the “polyreactivity (PSR sort gate)” value was “low polyreactivity”.

On to “QVQLVESGGGLVQAGGSLRISCAASGSIFYYYDMGWYRQAPGKERELVASISRGGRTYYADSVKGRFTISRDNAMNTVYLQMNSLKPEDTAVYYCAAGYYIRYYGIMDYWGQGTQVTVSS”, for which the “polyreactivity (PSR sort gate)” value is on record as “high polyreactivity”.

Consider “QLQLVESGGGLVQAGGSLRLSCAASGFIFETYAMGCYIQAPGKERELVAAISRGASTYYADSVKGRFTISRDNAKNTVYLQMNSLKPEYTAVYYCAAKRLSWHRYGYWGQGTQVTVSS”, for which the “polyreactivity (PSR sort gate)” value is listed as “low polyreactivity”.

As for “QVQLVESGGGLVQAGGSLRLSCAASGSTFTNYAMGWYRQAPGKERELVAAITSVGSTYYADSVKGRFTISRDNAKNTVYLQMNSLKPEDTAVYYCNVVYRDQYNYWGQGTQVTVSS”, the “polyreactivity (PSR sort gate)” value is reported as “low polyreactivity”.

Take “QVQLVESGGGLVQAGGSLRLSCAASGRIFVWNTMGWYRQAPGKERELVAAITSGGSTTYADSVKGRFTISRDNAKNTVYLQMNSLKPEDTAVYYCNTELDLYHPGDDYWGQGTQVTVSS”: the “polyreactivity (PSR sort gate)” value is given as “high polyreactivity”.

“QDQLVESGGGLVQAGGSLRLSCAASGFTFSHNVMGWSRQAPGKERELVAAITWSGDGTYYADSVKGRFTISRDNAKKSVYFQMNSLKTEDTAVYYCNARYGKEYDYWGQGTQVTVSS”: the “polyreactivity (PSR sort gate)” value is listed as “low polyreactivity”.

As for “QVQLVESGGGLVQAGGSLRLSCAASGSIFDGNAMGWYRQAPGKERELVASITYRGGSTYYADSVKGRFTISRDNAKNTVYLQMNSLQPEDTAVYYCAAVFKYRYDYWGQGTQVTVSS”, the “polyreactivity (PSR sort gate)” value was “low polyreactivity”.

Consider “QVQLVESGGGLVQAGGSLRLSSAASGIIFRGYVMGWYRQAPGKERELVAASTWSGGSTYYADSVKGRFTISRDNAKNTVYLQMNSLKPEDTAVYYCNAVRVRVTSHRIRQLDYGYWGQGTQVTVSS”, for which the “polyreactivity (PSR sort gate)” value is “low polyreactivity”.

On to “QVQLVESGGGLVQAGGSLRLSCAAYGFTFWRNAMGWYIQAPGKERELVAAISASGGSTYYASSVKGRFTISRDNAKNTVYLQMNSLKPEDTAVYYCNAGEWAISEWGWVVDYDYWGQGTQVTVSS”, for which the “polyreactivity (PSR sort gate)” value is “low polyreactivity”.

In the case of “QVQLVESGGGLVQAGGSLRLSCAASGSIFYPYAMGWYRQAPGKERELVASISSGGSTYYADSVKGRFTISRDNGKNTVYLQMISLKTDDTAVYYCIAVFSTFTGEYYWGKGTQVTVSS”, the “polyreactivity (PSR sort gate)” value is recorded as “high polyreactivity”.

Consider “QVQLVESGGGLVQAGGSLRLSCAASGRIFYPYAMGWYRQAPGKERELVADISSAGSTYYADSVKGRFTISRDNAKNTVYLQMNSLKPEDTAVYYCAADRTSGAYYFRFLYDRDYWGQGTQVTVSS”, for which the “polyreactivity (PSR sort gate)” value is reported as “low polyreactivity”.

As for “QVQLVESGGGLVQAGGSLRISCAASGNIFYRNGMGWYRQAPGKEREFVAAISRRGGSTYYADSVKGRFTISRDNAKNTVYLQMNSLKTEDTAVYYCATRYWPTNKGEYWGQGTQLTVSS”, the “polyreactivity (PSR sort gate)” value was “high polyreactivity”.

For the sequence “QVQLVESGGGLVQAGGSLRLSCAASGRTLRRYAMGWYRQAPGKERELVAAISRSGSSTYADSVKGRFTISRDNAKNTVYFQMNSLKPEDTAVYYCNAVYGYSAHGYYYRYDYWGQGTQVTVSS”, the “polyreactivity (PSR sort gate)” value is reported as “high polyreactivity”.

As for “QVQLVESGGGLVQAGGSLRLSCAASGRTFQVNAMGWYRQAPGKERELVAGITQRAGSTYYADSVKGRFTISRDNAKNTVYLQMNSLKPEDTAVYYCAAQDVHLWYENYYWGQGTQVTVSS”, the “polyreactivity (PSR sort gate)” value is “low polyreactivity”.

Consider “QVQLVESGGGLVQAGGSLRLSCAASGIIFTGNAMGWYRQAPGKERELVAAITSGDTTNYADSVKGRFTISRDNAKNTVYLQKNSLKPEDTAVYYCAKELQVRQAGDYWGQGTQVTVSS”, for which the “polyreactivity (PSR sort gate)” value is on record as “low polyreactivity”.

As for “QVQLVESGGGLVQAGGSLRLSCAASGFTFPGYTMGWYRQAPGKERELVAAITWSGGSTYYADSVKGRFTISRDTAKNTVYLQMNSLKPEDTAVYYCAAKYGAYYGNRDYWGQGTQVTVSS”, the “polyreactivity (PSR sort gate)” value is “high polyreactivity”.

On to “QVQLVESGGGLVQAGGSLRLSCAASGSICYSNARGWYRQAPGKERELVAAISFTGGTTYNADSVKGRFTISRDNAKNTVYLQMNSLKPEDTAVYFCNKLYHHYYGYWGQGTQVTVSS”, for which the “polyreactivity (PSR sort gate)” value is “high polyreactivity”.

For the sequence “QVQLVESGGGLVQAGGSLRLSCAASGSTLPFNAMGCYRQAPGKERELVAAISSGSSTNYADSVKGRFTISRDNAKNTVYLKMNSLKPEDTAVYYCNARPRANQLGDYYKPGTYDYWGQGTQVTVSS”, the “polyreactivity (PSR sort gate)” value is “low polyreactivity”.

For the sequence “QVQLVESGGGLVQAGGSHRLSCAASGRTFRDNTLGWYRQAPGKERELVAAISRRGGSTYYADSVKGRFTISRDNANNTVYLQMNSLKPVDTADYYCNAVFLTYGSNRGEYWGQGTQVTVSS”, the “polyreactivity (PSR sort gate)” value is reported as “high polyreactivity”.

Consider “QVQLVESGGGLVQAGGSLRLSCAASGSIFYKNAMGWYRQAPGKERELVAAISSSGGSTRYADSVKGRFTISRDNSKNTVSLQMNSLKPEDTAVYYCAASGSRTSRGYWGQGTQVTVSS”, for which the “polyreactivity (PSR sort gate)” value is reported as “high polyreactivity”.

On to “QVQLVESGGGLVQAGGSLRLSCAASGFTFYGYAMGWYRQAPGKERELVADISYRGGSTYYADSVKGRFTISRDNAKNTVYLQMNRLKPEDTAVYYCAARATPTYYAGQREDYNYWGQGTQVTVSS”, for which the “polyreactivity (PSR sort gate)” value was “high polyreactivity”.

With “QVQLVESGGGLVQAGGSLRLSCAASGRTFPGYAMGWYRQAPGKERELVAGISYRGGSTYYADSVKGRFTISRDNAKNTVYLQMNSLKPEDTAVYYCARDYSRHKGDYWGQGTQVTVSS”, the “polyreactivity (PSR sort gate)” value was “low polyreactivity”.

With “QVQLVESGGGLVQAGGSLRLSCAASGLTFWYYAMGWYRQAPGKERELVAAIDWSGASTYYADSVKGRFTISRDNAKNTVYLQMYSLKPEDTAVYYCNTVYYIGDDYWGQGTQVTVSS”, the “polyreactivity (PSR sort gate)” value is given as “high polyreactivity”.
